The source of these data is US20250250314A1 (XILIO DEVELOPMENT, published 2025).

The target of the assay is PD-1 from the PD-1 effector cells (UniProt Q15116 25-288, limits assumed). The experiment in a line: cell-based or functional assay.
PD-1 from the PD-1 effector cells, sequence (Q15116 25-288 limits assumed): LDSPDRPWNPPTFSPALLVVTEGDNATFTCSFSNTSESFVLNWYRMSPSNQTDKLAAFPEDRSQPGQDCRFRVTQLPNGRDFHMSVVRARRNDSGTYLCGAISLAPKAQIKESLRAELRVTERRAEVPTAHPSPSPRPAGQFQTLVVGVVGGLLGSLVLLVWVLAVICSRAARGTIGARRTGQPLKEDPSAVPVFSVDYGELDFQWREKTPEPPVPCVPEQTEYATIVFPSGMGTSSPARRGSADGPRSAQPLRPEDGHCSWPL

B1: UCM7 (other)
heavy 1: QVQLVQSGVEVKKPGASVKVSCKASGYTFTNYYMYWVRQAPGQGLEWMGGINPSNGGTNFNEKFKNRVTLTTDSSTTTAYMELKSLQFDDTAVYYCARRDYRFDMGFDYWGQGTTVTVSSASTKGPSVFPLAPSSKSTSGGTAALGCLVKDYFPEPVTVSWNSGALTSGVHTFPAVLQSSGLYSLSSVVTVPSSSLGTQTYICNVNHKPSNTKVDKKVEPKSCDKTHTCPPCPAPELLGGPSVFLFPPKPKDTLMISRTPEVTCVVVDVSHEDPEVKFNWYVDGVEVHNAKTKPREEQYASTYRVVSVLTVLHQDWLNGKEYKCKVSNKALPAPIEKTISKAKGQPREPQVYTLPPCRDELTKNQVSLWCLVKGFYPSDIAVEWESNGQPENNYKTTPPVLDSDGSFFLYSKLTVDKSRWQQGNVFSCSVMHEALHNRFTQKSLSLSPGGGSSPPGGGSSGGGSGPAPTSSSTKKTQLQLEHLLLDLQMILNGINNYKNPKLTAMLTAKFAMPKKATELKHLQCLEEALKPLEEVLNLAQSKNFHLRPRDLISNINVIVLELKGSETTFMCEYADETATIVEFLNRWITFAQSIISTLT
heavy 2: QVQLVQSGVEVKKPGASVKVSCKASGYTFTNYYMYWVRQAPGQGLEWMGGINPSNGGTNFNEKFKNRVTLTTDSSTTTAYMELKSLQFDDTAVYYCARRDYRFDMGFDYWGQGTTVTVSSASTKGPSVFPLAPSSKSTSGGTAALGCLVKDYFPEPVTVSWNSGALTSGVHTFPAVLQSSGLYSLSSVVTVPSSSLGTQTYICNVNHKPSNTKVDKKVEPKSCDKTHTCPPCPAPELLGGPSVFLFPPKPKDTLMISRTPEVTCVVVDVSHEDPEVKFNWYVDGVEVHNAKTKPREEQYASTYRVVSVLTVLHQDWLNGKEYKCKVSNKALPAPIEKTISKAKGQPREPQVCTLPPSRDELTKNQVSLSCAVKGFYPSDIAVEWESNGQPENNYKTTPPVLDSDGSFFLVSKLTVDKSRWQQGNVFSCSVMHEALHNHYTQKSLGGPLGLGGSSGSGGSGGGSGSGGGEVQLVESGGGLVQPGGSLRLSCAASGSIFSINVMGWYRQAPGKQRELVAAISSGGSTNYADSVKGRFTISRDNAKNTVYLQMNSLKPEDTAVYYCMYASSWYEDETDYWGQGTQVTVSS
light: EIVLTQSPATLSLSPGERATLSCRASKGVSTSGYSYLHWYQQKPGQAPRLLIYLASYLESGVPARFSGSGSGTDFTLTISSLEPEDFAVYYCQHSRDLPLTFGGGTKVEIKRTVAAPSVFIFPPSDEQLKSGTASVVCLLNNFYPREAKVQWKVDNALQSGNSQESVTEQDSKDSTYSLSSTLTLSKADYEKHKVYACEVTHQGLSSPVTKSFNRGEC
As for B1, the “EC50 (nM), fold induction of luminescence in the PD-1/PD-L1 Blockade Bioassay” value (“EC50 (nM), fold induction” below) was 1.36 nM.

B2: UCM4 (other)
heavy 1: QVQLVQSGVEVKKPGASVKVSCKASGYTFTNYYMYWVRQAPGQGLEWMGGINPSNGGTNFNEKFKNRVTLTTDSSTTTAYMELKSLQFDDTAVYYCARRDYRFDMGFDYWGQGTTVTVSSASTKGPSVFPLAPSSKSTSGGTAALGCLVKDYFPEPVTVSWNSGALTSGVHTFPAVLQSSGLYSLSSVVTVPSSSLGTQTYICNVNHKPSNTKVDKKVEPKSCDKTHTCPPCPAPELLGGPSVFLFPPKPKDTLMISRTPEVTCVVVDVSHEDPEVKFNWYVDGVEVHNAKTKPREEQYASTYRVVSVLTVLHQDWLNGKEYKCKVSNKALPAPIEKTISKAKGQPREPQVYTLPPCRDELTKNQVSLWCLVKGFYPSDIAVEWESNGQPENNYKTTPPVLDSDGSFFLYSKLTVDKSRWQQGNVFSCSVMHEALHNRFTQKSLSLSPGGGSSPPGGGSSGGGSGPAPTSSSTKKTQLQLEHLLLDLQMILNGINNYKNPKLTAMLTAKFAMPKKATELKHLQCLEEALKPLEEVLNLAQSKNFHLRPRDLISNINVIVLELKGSETTFMCEYADETATIVEFLNRWITFAQSIISTLT
heavy 2: QVQLVQSGVEVKKPGASVKVSCKASGYTFTNYYMYWVRQAPGQGLEWMGGINPSNGGTNFNEKFKNRVTLTTDSSTTTAYMELKSLQFDDTAVYYCARRDYRFDMGFDYWGQGTTVTVSSASTKGPSVFPLAPSSKSTSGGTAALGCLVKDYFPEPVTVSWNSGALTSGVHTFPAVLQSSGLYSLSSVVTVPSSSLGTQTYICNVNHKPSNTKVDKKVEPKSCDKTHTCPPCPAPELLGGPSVFLFPPKPKDTLMISRTPEVTCVVVDVSHEDPEVKFNWYVDGVEVHNAKTKPREEQYASTYRVVSVLTVLHQDWLNGKEYKCKVSNKALPAPIEKTISKAKGQPREPQVCTLPPSRDELTKNQVSLSCAVKGFYPSDIAVEWESNGQPENNYKTTPPVLDSDGSFFLVSKLTVDKSRWQQGNVFSCSVMHEALHNHYTQKMPYDLYHPGGSSGSGGSGGGSGSGGGEVQLVESGGGLVQPGGSLRLSCAASGSIFSINVMGWYRQAPGKQRELVAAISSGGSTNYADSVKGRFTISRDNAKNTVYLQMNSLKPEDTAVYYCMYASSWYEDETDYWGQGTQVTVSS
light: EIVLTQSPATLSLSPGERATLSCRASKGVSTSGYSYLHWYQQKPGQAPRLLIYLASYLESGVPARFSGSGSGTDFTLTISSLEPEDFAVYYCQHSRDLPLTFGGGTKVEIKRTVAAPSVFIFPPSDEQLKSGTASVVCLLNNFYPREAKVQWKVDNALQSGNSQESVTEQDSKDSTYSLSSTLTLSKADYEKHKVYACEVTHQGLSSPVTKSFNRGEC
With B2, the “EC50 (nM), fold induction” value was 1.28 nM.

B3: UCM2 (other)
heavy 1: QVQLVQSGVEVKKPGASVKVSCKASGYTFTNYYMYWVRQAPGQGLEWMGGINPSNGGTNFNEKFKNRVTLTTDSSTTTAYMELKSLQFDDTAVYYCARRDYRFDMGFDYWGQGTTVTVSSASTKGPSVFPLAPSSKSTSGGTAALGCLVKDYFPEPVTVSWNSGALTSGVHTFPAVLQSSGLYSLSSVVTVPSSSLGTQTYICNVNHKPSNTKVDKKVEPKSCDKTHTCPPCPAPELLGGPSVFLFPPKPKDTLMISRTPEVTCVVVDVSHEDPEVKFNWYVDGVEVHNAKTKPREEQYASTYRVVSVLTVLHQDWLNGKEYKCKVSNKALPAPIEKTISKAKGQPREPQVYTLPPCRDELTKNQVSLWCLVKGFYPSDIAVEWESNGQPENNYKTTPPVLDSDGSFFLYSKLTVDKSRWQQGNVFSCSVMHEALHNRFTQKSLSLSPGGGSSPPGGGSSGGGSGPAPTSSSTKKTQLQLEHLLLDLQMILNGINNYKNPKLTAMLTAKFAMPKKATELKHLQCLEEALKPLEEVLNLAQSKNFHLRPRDLISNINVIVLELKGSETTFMCEYADETATIVEFLNRWITFAQSIISTLT
heavy 2: QVQLVQSGVEVKKPGASVKVSCKASGYTFTNYYMYWVRQAPGQGLEWMGGINPSNGGTNFNEKFKNRVTLTTDSSTTTAYMELKSLQFDDTAVYYCARRDYRFDMGFDYWGQGTTVTVSSASTKGPSVFPLAPSSKSTSGGTAALGCLVKDYFPEPVTVSWNSGALTSGVHTFPAVLQSSGLYSLSSVVTVPSSSLGTQTYICNVNHKPSNTKVDKKVEPKSCDKTHTCPPCPAPELLGGPSVFLFPPKPKDTLMISRTPEVTCVVVDVSHEDPEVKFNWYVDGVEVHNAKTKPREEQYASTYRVVSVLTVLHQDWLNGKEYKCKVSNKALPAPIEKTISKAKGQPREPQVCTLPPSRDELTKNQVSLSCAVKGFYPSDIAVEWESNGQPENNYKTTPPVLDSDGSFFLVSKLTVDKSRWQQGNVFSCSVMHEALHNHYTQKSLSLPLGLGGSSGSGGSGGGSGSGGGEVQLVESGGGLVQPGGSLRLSCAASGSIFSINVMGWYRQAPGKQRELVAAISSGGSTNYADSVKGRFTISRDNAKNTVYLQMNSLKPEDTAVYYCMYASSWYEDETDYWGQGTQVTVSS
light: EIVLTQSPATLSLSPGERATLSCRASKGVSTSGYSYLHWYQQKPGQAPRLLIYLASYLESGVPARFSGSGSGTDFTLTISSLEPEDFAVYYCQHSRDLPLTFGGGTKVEIKRTVAAPSVFIFPPSDEQLKSGTASVVCLLNNFYPREAKVQWKVDNALQSGNSQESVTEQDSKDSTYSLSSTLTLSKADYEKHKVYACEVTHQGLSSPVTKSFNRGEC
For the molecule B3, the “EC50 (nM), fold induction” value was 0.84 nM.

B4: UCM8 (other)
heavy 1: QVQLVQSGVEVKKPGASVKVSCKASGYTFTNYYMYWVRQAPGQGLEWMGGINPSNGGTNFNEKFKNRVTLTTDSSTTTAYMELKSLQFDDTAVYYCARRDYRFDMGFDYWGQGTTVTVSSASTKGPSVFPLAPSSKSTSGGTAALGCLVKDYFPEPVTVSWNSGALTSGVHTFPAVLQSSGLYSLSSVVTVPSSSLGTQTYICNVNHKPSNTKVDKKVEPKSCDKTHTCPPCPAPELLGGPSVFLFPPKPKDTLMISRTPEVTCVVVDVSHEDPEVKFNWYVDGVEVHNAKTKPREEQYASTYRVVSVLTVLHQDWLNGKEYKCKVSNKALPAPIEKTISKAKGQPREPQVYTLPPCRDELTKNQVSLWCLVKGFYPSDIAVEWESNGQPENNYKTTPPVLDSDGSFFLYSKLTVDKSRWQQGNVFSCSVMHEALHNRFTQKSLSLSPGGGSSPPGGGSSGGGSGPAPTSSSTKKTQLQLEHLLLDLQMILNGINNYKNPKLTAMLTAKFAMPKKATELKHLQCLEEALKPLEEVLNLAQSKNFHLRPRDLISNINVIVLELKGSETTFMCEYADETATIVEFLNRWITFAQSIISTLT
heavy 2: QVQLVQSGVEVKKPGASVKVSCKASGYTFTNYYMYWVRQAPGQGLEWMGGINPSNGGTNFNEKFKNRVTLTTDSSTTTAYMELKSLQFDDTAVYYCARRDYRFDMGFDYWGQGTTVTVSSASTKGPSVFPLAPSSKSTSGGTAALGCLVKDYFPEPVTVSWNSGALTSGVHTFPAVLQSSGLYSLSSVVTVPSSSLGTQTYICNVNHKPSNTKVDKKVEPKSCDKTHTCPPCPAPELLGGPSVFLFPPKPKDTLMISRTPEVTCVVVDVSHEDPEVKFNWYVDGVEVHNAKTKPREEQYASTYRVVSVLTVLHQDWLNGKEYKCKVSNKALPAPIEKTISKAKGQPREPQVCTLPPSRDELTKNQVSLSCAVKGFYPSDIAVEWESNGQPENNYKTTPPVLDSDGSFFLVSKLTVDKSRWQQGNVFSCSVMHEALHNHYTQKSLSLPLGLGGSSGSGGSGGGSGSGGGSGGSGGEVQLVESGGGLVQPGGSLRLSCAASGSIFSINVMGWYRQAPGKQRELVAAISSGGSTNYADSVKGRFTISRDNAKNTVYLQMNSLKPEDTAVYYCMYASSWYEDETDYWGQGTQVTVSS
light: EIVLTQSPATLSLSPGERATLSCRASKGVSTSGYSYLHWYQQKPGQAPRLLIYLASYLESGVPARFSGSGSGTDFTLTISSLEPEDFAVYYCQHSRDLPLTFGGGTKVEIKRTVAAPSVFIFPPSDEQLKSGTASVVCLLNNFYPREAKVQWKVDNALQSGNSQESVTEQDSKDSTYSLSSTLTLSKADYEKHKVYACEVTHQGLSSPVTKSFNRGEC
Consider B4, for which the “EC50 (nM), fold induction” value amounted to 1.09 nM.
